Assay results from paper PMC8628261 (Cell reports, 2021).

B1: mouse Kirrel2 ectodomain, wild type (domain or fragment, UniProt Q7TSU7 20-507, looked up)
chain: SPHFLQQPEDMVVLLGEEARLPCALGAYRGLVQWTKDGLALGGERDLPGWSRYWISGNSASGQHDLHIKPVELEDEASYECQASQAGLRSRPAQLHVMVPPEAPQVLGGPSVSLVAGVPGNLTCRSRGDSRPAPELLWFRDGIRLDGSSFHQTTLKDKATGTVENTLFLTPSSHDDGATLICRARSQALPTGRDTAVTLSLQYPPMVTLSAEPQTVQEGEKVTFLCQATAQPPVTGYRWAKGGSPVLGARGPRLEVVADATFLTEPVSCEVSNAVGSANRSTALEVLYGPILQAKPKSVSVDVGKDASFSCVWRGNPLPRITWTRMGGSQVLSSGPTLRLPSVALEDAGDYVCRAEPRRTGLGGGKAQARLTVNAPPVVTALQPAPAFLRGPARLQCVVFASPAPDSVVWSWDEGFLEAGSLGRFLVEAFPAPEVEGGQGPGLISVLHISGTQESDFTTGFNCSARNRLGEGRVQIHLGRRDLLPTVR
B2: mouse Kirrel3 ectodomain, wild type (domain or fragment, UniProt Q8BR86 22-535, looked up)
chain: LQKRGCCLVLGYMAKDKFRRMNEGQVYSFSQQPQDQVVVSGQPVTLLCAIPEYDGFVLWIKDGLALGVGRDLSSYPQYLVVGNHLSGEHHLKILRAELQDDAVYECQAIQAAIRSRPARLTVLVPPDDPIILGGPVISLRAGDPLNLTCHADNAKPAASIIWLRKGEVINGATYSKTLLRDGKRESIVSTLFISPGDVENGQSIVCRATNKAIPGGKETSVTIDIQHPPLVNLSVEPQPVLEDNIVTFHCSAKANPAVTQYRWAKRGHIIKEASGELYRTTVDYTYFSEPVSCEVTNALGSTNLSRTVDVYFGPRMTSEPQSLLVDLGSDAVFSCAWIGNPSLTIVWMKRGSGVVLSNEKTLTLKSVRQEDAGKYVCRAVVPRVGAGEREVTLTVNGPPIISSTQTQHALHGEKGQIKCFIRSTPPPDRIAWSWKENVLESGTSGRYTVETVNTEEGVISTLTISNIVRADFQTIYNCTAWNSFGSDTEIIRLKEQGSEMKSGAGLEAESVPMA

Target: the molecule itself
Test: AUC

Row | Protein | Kd [nM] | stoichiometry N
1 | B1 | 900 | 2
2 | B2 | 210 | 2
